According to US20050054571A1, “Antimicrobial proteins from the SPO1 bacteriophage” (Rice University, priority 2003, published 2005):
“Also recorded” adds a separate entry of the source. Where two headings read alike, the source gives them in different places.

Legend:
Format in all cases: cell-based
bacteria = assay: Toxicity or lethality of expression of cloned SPO1 genes, bacterium not given
Excerpt: (§1) For analysis of antimicrobial activity we first cloned most of the 24 host-takeover genes (genes 37-60) singly or in multiple gene combinations into a B. subtilis/E. coli shuttle vector (pPW19) under control of an IPTG-inducible promoter (Wei and Stewart, 1993). […] These remaining genes are being cloned using expression vectors with more tightly regulated promoters, such as pJONEX4 (Sayers, 1996), pET101, or pX (Kim et al., 1996). The transformed E. coli and B. subtilis were used to determine the antimicrobial activity, if any, of the cloned genes. The effect of induction on bacterial growth and viability was measured both in liquid medium and by colony formation. Definitive establishment of lethality was shown by loss of the ability to form colonies even after removal from the inducing agent. Indication of probable lethality was based on total inability to form colonies under inducing conditions.
In cells growing in liquid medium, expression of the cloned gene 44 was induced at time 0. At subsequent times, the number of cells remaining viable was measured by plating in the absence of inducer. More than 99% of the cells were killed within three hours.

E. coli = assay: Effect of induced expression of cloned SPO1 genes on growth and viability of E. coli (liquid medium and colony formation); details: cloned gene(s) expressed from IPTG-inducible promoter, * = lethality conclusion based on failure to clone, ** = data not conclusive
Excerpt: as §1

B. subtilis = assay: Effect of induced expression of cloned SPO1 genes on growth and viability of B. subtilis (liquid medium and colony formation); details: cloned gene(s) expressed from IPTG-inducible promoter, * = lethality conclusion based on failure to clone, ** = data not conclusive
Excerpt: as §1

For “Gene 37: product of SPO1 host-takeover gene 37, SEQ ID NO: 1 (MSDVIIPFLTSAVTAFIVAYLLDRWYIKRRR; SPO1 Bacteriophage)”, the “toxicity or lethality of expression” value (bacteria) was “lethal” and the “Lethality, E. coli” value (E. coli) was “Lethal *”.

With “Gene 58: product of SPO1 host-takeover gene 58, SEQ ID NO: 22 (MTLAGYRVDSCNGCGKAYLVGESHDRKKCAECASK; SPO1 Bacteriophage)” the “Lethality, E. coli” value (E. coli) was “Mildly toxic” and the “Lethality, B. subtilis” value (B. subtilis) was “No effect”.

B1: Gene 52: product of SPO1 host-takeover gene 52, SEQ ID NO: 16 (protein)
chain: MTHFISIATYIYALVSAGFIGGWHDEESWIKDTEYEHGGYHMIIDTPAVVNYSLEYGNYQWIFQKYMKEGKVTVERFYRNSLDIPKEILTDEALAFIKDWDENANEYELHAGEGVLYFKYEGEEKGYVIPMAYAGEIMFVPDEDAEKALEIINSQKKY
modifications: SPO1 Bacteriophage
In the case of B1, the “Lethality, E. coli” value (E. coli; listed as 52) is reported as “Lethal”.

B2: Gene 45: product of SPO1 host-takeover gene 45, SEQ ID NO: 9 (protein)
chain: MMMDKQVEEVKKHYPIVEDWSVIVARKEDDCMTVTDAVPFILAGYKNVSYEMDDIVVLCSEPIGLTWEDVRFLKNHEGSVSFEEIGYEDKAMVYHVDLG
modifications: SPO1 Bacteriophage
With B2 the “toxicity or lethality of expression” value (bacteria) was “toxic but not lethal”, the “Lethality, E. coli” value (E. coli) was “Toxic” and the “Lethality, B. subtilis” value (B. subtilis) was “Mildly Toxic”.

B3: Gene 57: product of SPO1 host-takeover gene 57, SEQ ID NO: 21 (protein)
chain: MTLFIAGVTLEEVREATVSALFVKLEQEKKALYLGAGSEDSLNLCKSTLDKVQEDYPLDDMEKDYLRDLLQFWLSRLFLGDGFEGEIPDSSEDLRRTATTAFTYTAAIRHYCM
modifications: SPO1 Bacteriophage
B3 was tested, and the “Lethality, E. coli” value (E. coli) was “Mildly toxic” and the “Lethality, B. subtilis” value (B. subtilis) was “No effect”.

B4: Gene 48: product of SPO1 host-takeover gene 48, SEQ ID NO: 12 (protein)
chain: MPYSKITVPVLVGEGLTEWDVIDVMRETHPPTVEDQYHYHTFDSMQNRTIFVLENPLYPDVDKIPEKVLGIAVDALEDMLDNVPVEDLPVTEEQGNVKRFTTKLASIVFDVFLIIPDFVSVTAKEE
modifications: SPO1 Bacteriophage
In the case of B4, the “Lethality, E. coli” value (E. coli; listed as 48) is reported as “strongly toxic but not lethal; also recorded: Strongly Toxic” and the “Lethality, B. subtilis” value (B. subtilis; listed as 48) is reported as “strongly toxic but not lethal; also recorded: Strongly Toxic”.

B5: Gene 43: product of SPO1 host-takeover gene 43, SEQ ID NO: 7 (protein)
chain: MIQLSERQQDLLQVAEKYEQCHIEFYTAQSRLFGTEIMGEVVKTSLGTLKIAHPEEDLFEVALAYLASKKDILTAQERKDVLFYIQNNLC
modifications: SPO1 Bacteriophage
With B5 the “Lethality, E. coli” value (E. coli; listed as 43) was “too inconsistent to permit any conclusion; also recorded: Indeterminate” and the “Lethality, B. subtilis” value (B. subtilis; listed as 43) was “too inconsistent to permit any conclusion; also recorded: Indeterminate”.

B6: Gene 38: product of SPO1 host-takeover gene 38, SEQ ID NO: 2 (protein)
chain: MSVQIKHGNKTFVVDPSGDVKEGSYVLYLYEYRLGEVDVGRVSEVANDGRLYLDGPGVIVTLDQPFILLKEVVEEEEDEDDRIDAEFHNDPLLRKLENTTEKLTPEETQLAQWTTMTRVFSHDLKKGIPYAIKHKNSGNILYGLYSGLLNPVTALFRHLNEESKISIEQLKSGLIEIYEVVEDEEESIWN
modifications: SPO1 Bacteriophage
For B6, the “Lethality, E. coli” value (E. coli) was “Highly toxic” and the “Lethality, B. subtilis” value (B. subtilis) was “No effect **”.

B7: Gene 41: product of SPO1 host-takeover gene 41, SEQ ID NO: 5 (protein)
chain: MEKLPNTVVKVHGEGMESKLFPRKLHKDTNSILREDLVSACQEHIEALVEGMIAHGDGRKVAELDTSTQYYWHLKLVEYTPIPGRTQHYVDLVDGTNPDVCYFSLCDCSGDNITDRRWSNMVKRLQNPEEDIAKTLRCYFRQDAGMPSWIEYPQ
modifications: SPO1 Bacteriophage
In the case of B7, the “Lethality, E. coli” value (E. coli; listed as 41) is reported as “only a mild effect; also recorded: Mildly Toxic” and the “Lethality, B. subtilis” value (B. subtilis; listed as 41) is reported as “lethal; also recorded: Lethal *”.

B8: Gene 39: product of SPO1 host-takeover gene 39, SEQ ID NO: 3 (protein)
chain: MELNLDIYVDYKDKRYKAEGYYGPSVGDLVLIFMDMELEGATVQEVARIEGSEIHLRTPNGNEPSYRYMGQYLILKPYGSSDPRGDILVHEDVQYVRVDAQAMPGDLIEALEPNKLPFSGKRFKYRPAVLEVEYVLTKDEQVLQLENGKSYSGAYRVLIPRMGVLPPKTHIYTTHKHVFMEDVFVLGNSYELSSPNDVEMTPIHAVFTGFSKNRDEAIFVNPYYNDDGVTGTMITVSDLLTGKWDITPLVPKKGV
modifications: SPO1 Bacteriophage
In the case of B8, the “toxicity or lethality of expression” value (bacteria; listed as 39) is reported as “lethal effect” and the “Lethality, E. coli” value (E. coli) is reported as “Lethal”.

B9: Gene 47: product of SPO1 host-takeover gene 47, SEQ ID NO: 11 (protein)
chain: MDWTKMTFMGTVDEVKEIWNGLEEAGRLYAVWLSDDHVYGIVDVNEEGLFCLGWVSDISPESLQNMLGGGAELFESYEDVLSEHGGSIAIRVEV
modifications: SPO1 Bacteriophage
B9 was tested, and the “Lethality, E. coli” value (E. coli; listed as 47) was “little or no effect; also recorded: No effect” and the “Lethality, B. subtilis” value (B. subtilis; listed as 47) was “little or no effect; also recorded: No effect”.

B10: Gene 46: product of SPO1 host-takeover gene 46, SEQ ID NO: 10 (protein)
chain: MMTEDQKFKYLTKIEELEAGCFSDWTKEDITGDLKYLKKGIIEESIELIRAVNGLTYSEELHDFTQEIIEELDISPL
modifications: SPO1 Bacteriophage
With B10 the “toxicity or lethality of expression” value (bacteria) was “lethal but with diminished efficiency”, the “Lethality, E. coli” value (E. coli) was “Lethal” and the “Lethality, B. subtilis” value (B. subtilis) was “Mildly Toxic”.

B11: Gene 40: product of SPO1 host-takeover gene 40, SEQ ID NO: 4 (protein)
chain: MHIYTYWGLKYVPSNSTMVAKEGDLILLGNEVHKVVKVLHRFRNITDLQITNWKGTETRYNLHVTEYKVLVPYDTHKEENEAMSDSLITHNGKDYVLCKIPARVGDLIRTEDKRVWEVLQKSKDGLVLYNEEKGEQRSAVYSEIGPYHVLVPRDTDTHTPTREELAAVIMNKAFTRTETQDSQEDTGTHKGLGLTGTDLYHSLRDLDAKVQSGYYTATENEEDVKSEIEATKKHMKAVKESGKTVNDYRKEENTKRCKLKALTNKFNRLFLKSVIDTDSLQVGKAYLIGGRDMKNVHGLYTGTTFDQQHANFLIVETDRMHRTLTVSAEQLFAEERHIVDIEKRVEQTED
modifications: SPO1 Bacteriophage
For B11, the “Lethality, E. coli” value (E. coli; listed as 40) was “only mildly toxic” and the “Lethality, B. subtilis” value (B. subtilis; listed as 40) was “only mildly toxic; also recorded: Inconsistent”.

B12: Gene 42: product of SPO1 host-takeover gene 42, SEQ ID NO: 6 (protein)
chain: MRKFVTTLTASPRNKKVGNHRLEISPFVSLRRYYYFNTAICIENPVTREFAIDDSYGSLSTNQNCAQYRQYFSLGGYKEVSLEEIHAV
modifications: SPO1 Bacteriophage
For B12, the “Lethality, E. coli” value (E. coli; listed as 42) was “no toxic effect” and the “Lethality, B. subtilis” value (B. subtilis; listed as 42) was “no toxic effect”.
